Reference: patent US20180289842A1

Target: albumin
Assay: albumin binding constant (K), same method as the earlier dye-albumin study; method not described

- Ka: 86000 M⁻¹
Substance: LS838: Cypate-Cyclo(DCys-Gly-Arg-Asp-Ser-Pro-Cys)-Tyr-OH (peptide)
